The record followed here is patent US20100105569A1 (AbbVie / Abbott, published 2010).

The target in assay [1] is biotinylated HA tag peptide. Nature of the assay: mRNA-scFv selected with 50 nM HA; PDI: Yes, RT before selection without DTT.
Assay [2] deals with biotinylated HA tag peptide. Description: mRNA-scFv (ligated protein) selected with 50 nM HA; translated without PDI.
Assay [3] has as its target biotinylated HA tag peptide. Nature of the assay: free scFv selected with 50 nM HA; translated without PDI.
The target of assay [4] is biotinylated HA tag peptide. Description: mRNA-scFv selected with 50 nM HA; PDI: Yes, RT: No (same value as the 33rd table, row 11, column 5).
In assay [5] the target is biotinylated HA tag peptide. Nature of the assay: mRNA-scFv selected with 50 nM HA; PDI: Yes, RT before selection with DTT.
Assay [6] deals with biotinylated HA tag peptide. Description: free scFv selected with 50 nM HA; translated with PDI.
The target in assay [7] is biotinylated HA tag peptide. Nature of the assay: mRNA-scFv (ligated protein) selected with 50 nM HA; translated with PDI.
Assay [8] concerns the target biotinylated HA tag peptide. Description: mRNA-scFv selected with 50 nM HA; PDI: No, RT: No (same value as the 33rd table, row 10, column 5).
The target in assay [9] is T1, human IL-12 (biotinylated) (human, UniProt P29459 23-219; P29460 23-328, biotinylated (site and subunit not stated)).
T1 construct: also called hIL-12
T1 sequence (looked up) 1: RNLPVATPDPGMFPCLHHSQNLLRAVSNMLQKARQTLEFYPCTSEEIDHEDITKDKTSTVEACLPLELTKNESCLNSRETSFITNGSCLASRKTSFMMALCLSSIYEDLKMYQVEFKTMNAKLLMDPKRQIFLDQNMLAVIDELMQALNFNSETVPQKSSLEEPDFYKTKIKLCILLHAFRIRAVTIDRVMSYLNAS
T1 sequence (looked up) 2: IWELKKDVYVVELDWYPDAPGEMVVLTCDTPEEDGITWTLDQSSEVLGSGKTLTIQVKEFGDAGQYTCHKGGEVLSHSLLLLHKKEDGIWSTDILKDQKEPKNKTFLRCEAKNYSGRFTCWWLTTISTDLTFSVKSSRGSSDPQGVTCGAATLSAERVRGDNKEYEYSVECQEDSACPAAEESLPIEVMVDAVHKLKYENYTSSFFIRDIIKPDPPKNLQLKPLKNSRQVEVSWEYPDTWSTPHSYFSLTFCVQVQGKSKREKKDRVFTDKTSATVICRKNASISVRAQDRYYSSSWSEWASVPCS
Nature of the assay: mRNA-scFv selected with 50 nM IL-12, bead capture, % of input 35S counts recovered.

B1: 17/9 scFv (spacer form not stated) (scFv)
scFv: EVQLVESGGGLVQPGRSLRLSCAASGFTFDDYAMHWVRQAPGKGLDWVSAITWNSGHIDYADSVEGRFAVSRDNAKNALYLQMNSLRPEDTAVYYCTKASYLSTSSSLDNWGQGTLVTVSSGGGGSGGGGSGGGGSDIQMTQSPSSLSASIGDRVTITCRASQGIRNYLAWYQQKPGKAPKLLIYAASTLQSGVPSRFSGSGSGTDFTLTISSLQPEDVATYYCQKYNSAPYAFGQGTKVEIKR
On to B1, for which the % of Recovery, HA (50 nM) selection in assay [1] is 9.4%; in [2], 2.3%; in assay [3], 3.3%; in assay [4] it was 12.4%; in [5], 2%; in [6], 30.5%. In addition, the % of Recovery, HA (50 nM) selection in [7] turned out to be 12.4%; in assay [8] it was 2.3%.

B2: Y61 scFv short (Y61-scCL-short) (scFv)
scFv: MQVQLVQSGGGVVQPGRSLRLSCAASGFTFSSYGMHWVRQAPGKGLEWVAFIRYDGSNKYYADSVKGRFTISRDNSKNTLYLQMKSLRAEDTAVYYCKTHGSHDNWGQGTMVTVSSGGGGSGGGGSGGGGSSYVLTQPPSVSGTPGQRVTISCSGGRSNIGSNTVKWYQQLPGTAPKLLIYGNDQRPSGVPDRFSGSKSGTSASLAITGVQAEDEADYYCQSYDRGTHPALLFGTGTKLTVLGQPKAAPSVTLDYKDDDDKASAI
notes: Human anti-hIL-12 scFv, in vitro translated with 35S-methionine; tested as free protein or as mRNA-scFv (ligated protein), as said under assay; also called Y61-CL-short
Consider B2, for which, in [9], the “Percent of Recovery, IL-12 (50 nM selection)” value (“Percent … (50 nM selection)” for short) came out at 21.1%.

B3: Y61-scGene3 (Y61 scFv Gene3) (scFv)
scFv: MQVQLVQSGGGVVQPGRSLRLSCAASGFTFSSYGMHWVRQAPGKGLEWVAFIRYDGSNKYYADSVKGRFTISRDNSKNTLYLQMKSLRAEDTAVYYCKTHGSHDNWGQGTMVTVSSGGGGSGGGGSGGGGSSYVLTQPPSVSGTPGQRVTISCSGGRSNIGSNTVKWYQQLPGTAPKLLIYGNDQRPSGVPDRFSGSKSGTSASLAITGVQAEDEADYYCQSYDRGTHPALLFGTGTKLTVLGQPKAAPSVTLPQPPVNAGGGSGGGSGGGSEGGGSEGGGSEGGGSEGGGSGGGSGSGDFDYEKMANANKGAMTENADENALQSDAKGKLDSVATDYDYKDDDDKASAI
notes: also called PF-y61scGene3
For the molecule B3, the “Percent … (50 nM selection)” value in assay [9] was 8%.

B4: Y61-scGene3pA (Y61 scFv Gene3PA) (scFv)
scFv: B3 scFv
For B4, the “Percent … (50 nM selection)” value in [9] came to 6.1%.
